Measurements published in patent US11110158B2, “Prostate-associated antigens and vaccine-based immunotherapy regimens” (Pfizer Inc., priority 2012, dated 2021).
Read-outs that look alike come from different tables or passages of the source.

Assays:
[1] = parameters: species or system Indian Rhesus macaques; conditions: rhesus monkey, in vivo, 10 mg/kg
Method: Three animals per treatment group were injected with the anti-CTLA-4 antibody Tremelimumab at 10 mg/kg, either with a single intravenous injection into the saphenous vein or multiple 0.2 ml intradermal bilateral injections in the upper thigh in proximity to the inguinal draining lymph nodes. Blood samples were collected at 0, 1, 2, 4, 8, 12, 24, and 48 hrs post injection into 2.0 ml vaccutainer tubes containing lithium heparin as the anticoagulant. Plasma was collected from the supernatant in the vaccutainer tubes after centrifugation at 1500×g at 4° C. for 10 min. The levels of Tremelimumab in the plasma was measured by a quantitative ELISA assay according to the procedure provided below.
Tremelimumab Quantitative ELISA Assay Procedure. The 384-well high bind assay plates (VWR-Greiner Bio-One Cat #82051-264) were coated with 25 μl/well of CD-152 (CTLA-4; Ancell Immunology Research Products Cat #501-020) at 1.0 μg/ml in 100 mM carbonate-bicarbonate coating buffer and incubated overnight at 4° C. […] The colorimetric reaction was stopped by addition of 12.5 μL/well 1N Sulfuric acid and the absorbance then read at 450 nm. The amount of Tremelimumab in each sample was quantified using the standard curve with 0.27 to 67 ng/mL used as the quantitative range.

[2] = tested on: 293 cells; assay: Expression of PSMA constructs in transfected 293 cells by FACS; format: cell-based; conditions: 293 cells transfected with PJV7563 vector, stained with mouse anti-PSMA antibody three days later; cell surface expression
Method: The expression of the PSMA cytosolic, secreted, and modified antigens was determined by FACS. Mammalian 293 cells were transfected with the PJV7563 PMED vectors encoding the various immunogenic PSMA polypeptides. Three days later, the 293 cells were stained with mouse anti-PSMA antibody, followed with a fluorescent conjugated (FITC) rat anti-mouse secondary antibody.

[3] = tested on: hPSMA full-length protein; assay: IFN-γ ELISPOT, hPSMA modified versus full-length DNA vaccine in C57BL/6 mice; format: in vivo, human; conditions: Example 7, FIG. 26; C57BL/6, PMED days 0, 14, 28; day 35
From the text: The immune responses induced by DNA vaccination using a construct encoding an immunogenic PSMA polypeptide (the “human PSMA modified antigen” or “hPSMA modified”) consisting 15-750 amino acids (aa) of the native human PSMA protein of SEQ ID NO: 1 were compared with those induced by the native human full-length PSMA protein (hPSMA full length). Groups of female C57BL/6 mice or female Pasteur (HLA-A2/DR1) transgenic mice were primed on day 0 and boosted on days 14, 28 by PMED administration with a 2 μg dose of a DNA vaccine encoding either hPSMA full-length or hPSMA modified protein. Mice were bled and sacrificed on day 35 (7 days after the third vaccination) and T cell immune responses against the hPSMA full-length protein were determined in splenocytes by IFN-γ ELISPOT assay. For C57BL/6 mice, single cell suspensions of 5×10^5 splenocytes from individual animals were plated per well with […] purified hPSMA protein, 5×10^4 TRAMP-C2 cells alone, or TRAMP-C2 cells expressing hPSMA or a PSMA-PSA-PSCA fusion protein. […] Responses in Pasteur mice were also determined using 10 μg/ml purified PSMA protein or 5×10^4 SK-Mel5 cells that had been transduced with Adenoviral vectors expressing a control protein (Ad-eGFP) or the full-length human PSMA protein (Ad-hPSMA). […] The number of IFN-γ SFC was counted by a CTL reader. […]

Substance	AUC0-24 [1] [µg·h/mL]	AUC0-24 ([1]; iv) [µg·h/mL]	Average mean fluorescent intensity [2]	IFN-γ T cell responses to TRAMP C2-PSMA or purified hPSMA protein [3]
Tremelimumab: fully human IgG2 anti-CTLA-4 monoclonal antibody, CAS 745013-59-6, SEQ ID NOs:42 and 43	4900	7200	–	–
PSMA modified: membrane-bound polypeptide of amino acids 15-750 of human PSMA, SEQ ID NO: 9; tested as DNA construct	–	–	12270	equivalent T cell immune responses
